# Measurements as given in the supplement of paper PMC9112550, “Optimization of the antimicrobial peptide Bac7 by deep mutational scanning” (BMC Biology, 2022).
# Test system: Escherichia coli TOP10
# Experiment: shrunken log2 fold change of peptide-encoding DNA abundance (4.5 h post-induction vs induction); higher = less antimicrobial activity (less host growth inhibition)
# Conditions: time post-induction: 4.5 h; library: site-saturation at positions 5, 18, 19, 20
# 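Note: peptides expressed intracellularly from a pBAD plasmid library in pooled LB shake-flask culture, induced with 0.3% L-arabinose, DNA abundance read by NGS, three biological replicates, DESeq2 with apeglm shrinkage.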
row,Sequence,shrunken log2 fold change
1,RRIRTRPPRLPRPRPRPYYYPRP,-1.2
2,RRIRGRPPRLPRPRPRPVAQPRP,0.719
3,RRIRRRPPRLPRPRPRPTTGPRP,-0.00353
4,RRIRQRPPRLPRPRPRPMHWPRP,0.0747
5,RRIRIRPPRLPRPRPRPNVMPRP,-0.328
6,RRIRVRPPRLPRPRPRPWKYPRP,-0.0321
7,RRIRARPPRLPRPRPRPEMGPRP,1.12
8,RRIRPRPPRLPRPRPRPNCPPRP,-0.0126
9,RRIRCRPPRLPRPRPRPAMVPRP,0.204
10,RRIRLRPPRLPRPRPRPLIHPRP,-0.542
11,RRIRFRPPRLPRPRPRPKHEPRP,0.286
12,RRIRSRPPRLPRPRPRPPVCPRP,0.311
13,RRIRGRPPRLPRPRPRPTCNPRP,0.7
14,RRIRQRPPRLPRPRPRPGIHPRP,0.0177
15,RRIRHRPPRLPRPRPRPEQLPRP,-0.0602
16,RRIRRRPPRLPRPRPRPHVAPRP,-0.138
17,RRIRQRPPRLPRPRPRPQLIPRP,-0.237
18,RRIRWRPPRLPRPRPRPIDMPRP,0.0712
19,RRIRLRPPRLPRPRPRPGGHPRP,0.0643
20,RRIRRRPPRLPRPRPRPSNNPRP,-0.303
21,RRIRQRPPRLPRPRPRPQSPPRP,-0.0301
22,RRIRSRPPRLPRPRPRPKACPRP,-0.253
23,RRIRIRPPRLPRPRPRPPTWPRP,-0.101
24,RRIRTRPPRLPRPRPRPYMVPRP,-1.93
25,RRIRVRPPRLPRPRPRPQKNPRP,-0.217

row,Sequence,shrunken log2 fold change
1,RRIRCRPPRLPRPRPRPMMAPRP,0.184
2,RRIRQRPPRLPRPRPRPAHMPRP,-0.267
3,RRIRWRPPRLPRPRPRPEKFPRP,0.0209
4,RRIRMRPPRLPRPRPRPISPPRP,0.0263
5,RRIRFRPPRLPRPRPRPPAQPRP,1.02
6,RRIRFRPPRLPRPRPRPIVTPRP,-0.075
7,RRIRSRPPRLPRPRPRPSHWPRP,0.337
8,RRIRQRPPRLPRPRPRPNSEPRP,-0.206
9,RRIRSRPPRLPRPRPRPMGCPRP,-0.112
10,RRIRQRPPRLPRPRPRPYPTPRP,0.0734
11,RRIRDRPPRLPRPRPRPRMSPRP,-0.149
12,RRIRLRPPRLPRPRPRPEFAPRP,0.342
13,RRIRDRPPRLPRPRPRPKFVPRP,0.0202
14,RRIRQRPPRLPRPRPRPSKGPRP,0.0585
15,RRIRQRPPRLPRPRPRPDAFPRP,0.141
16,RRIRKRPPRLPRPRPRPEVTPRP,-0.0421
17,RRIRDRPPRLPRPRPRPANSPRP,2.98
18,RRIRSRPPRLPRPRPRPTCTPRP,0.342
19,RRIRWRPPRLPRPRPRPGTGPRP,0.188
20,RRIRRRPPRLPRPRPRPTPDPRP,0.72
21,RRIRYRPPRLPRPRPRPYYQPRP,-0.462
22,RRIRCRPPRLPRPRPRPFAWPRP,0.0983
23,RRIRNRPPRLPRPRPRPPNGPRP,-0.00827
24,RRIRFRPPRLPRPRPRPHAPPRP,-0.062
25,RRIRARPPRLPRPRPRPKRDPRP,0.135

row,Sequence,shrunken log2 fold change
1,RRIRARPPRLPRPRPRPGIMPRP,0.113
2,RRIRLRPPRLPRPRPRPANRPRP,-0.133
3,RRIRKRPPRLPRPRPRPRGKPRP,0.126
4,RRIRERPPRLPRPRPRPTWAPRP,0.115
5,RRIRDRPPRLPRPRPRPKTLPRP,-0.21
6,RRIRSRPPRLPRPRPRPDHIPRP,-0.119
7,RRIRGRPPRLPRPRPRPASTPRP,0.653
8,RRIRRRPPRLPRPRPRPARMPRP,0.173
9,RRIRHRPPRLPRPRPRPKVAPRP,-0.049
10,RRIRKRPPRLPRPRPRPYPWPRP,-0.4
11,RRIRHRPPRLPRPRPRPSQCPRP,-0.325
12,RRIRSRPPRLPRPRPRPCELPRP,0.0778
13,RRIRDRPPRLPRPRPRPYPTPRP,-0.635
14,RRIRMRPPRLPRPRPRPAQAPRP,0.107
15,RRIRYRPPRLPRPRPRPIEQPRP,-0.00931
16,RRIRGRPPRLPRPRPRPKIRPRP,0.118
17,RRIRERPPRLPRPRPRPSIWPRP,-0.0411
18,RRIRARPPRLPRPRPRPPRKPRP,1.1
19,RRIRTRPPRLPRPRPRPRRQPRP,-0.0389
20,RRIRPRPPRLPRPRPRPFFKPRP,-0.0682
21,RRIRNRPPRLPRPRPRPPAGPRP,0.637
22,RRIRKRPPRLPRPRPRPSMLPRP,-0.0569
23,RRIRCRPPRLPRPRPRPPYWPRP,0.279
24,RRIRQRPPRLPRPRPRPMPIPRP,0.0245
25,RRIRMRPPRLPRPRPRPNDLPRP,0.0853

row,Sequence,shrunken log2 fold change
1,RRIRPRPPRLPRPRPRPPWFPRP,0.32
2,RRIRRRPPRLPRPRPRPQDKPRP,-0.289
3,RRIRRRPPRLPRPRPRPHKDPRP,-0.11
4,RRIRFRPPRLPRPRPRPYPHPRP,-1.04
5,RRIRIRPPRLPRPRPRPKVGPRP,0.164
6,RRIRYRPPRLPRPRPRPVGRPRP,0.0286
7,RRIRSRPPRLPRPRPRPVEQPRP,-0.0605
8,RRIRHRPPRLPRPRPRPFDSPRP,-0.00149
9,RRIRGRPPRLPRPRPRPQDCPRP,0.0863
10,RRIRMRPPRLPRPRPRPHYYPRP,-0.061
11,RRIRGRPPRLPRPRPRPKFWPRP,0.533
12,RRIRLRPPRLPRPRPRPEICPRP,-0.0881
13,RRIRYRPPRLPRPRPRPWGGPRP,0.011
14,RRIRIRPPRLPRPRPRPTAMPRP,-0.191
15,RRIRCRPPRLPRPRPRPGYLPRP,-0.561
16,RRIRGRPPRLPRPRPRPLVSPRP,0.355
17,RRIRNRPPRLPRPRPRPQHFPRP,-0.0338
18,RRIRTRPPRLPRPRPRPHVLPRP,-0.193
19,RRIRTRPPRLPRPRPRPHRYPRP,-0.604
20,RRIRVRPPRLPRPRPRPMCYPRP,-0.306
21,RRIRHRPPRLPRPRPRPLVHPRP,-0.238
22,RRIRIRPPRLPRPRPRPLHFPRP,-0.511
23,RRIRYRPPRLPRPRPRPCLRPRP,-0.286
24,RRIRFRPPRLPRPRPRPRMKPRP,-0.0673
25,RRIRQRPPRLPRPRPRPEFLPRP,0.025

row,Sequence,shrunken log2 fold change
1,RRIRPRPPRLPRPRPRPMTYPRP,-0.437
2,RRIRQRPPRLPRPRPRPYDNPRP,-0.0495
3,RRIRNRPPRLPRPRPRPQRRPRP,0.135
4,RRIRYRPPRLPRPRPRPAFNPRP,-0.431
5,RRIRIRPPRLPRPRPRPRQEPRP,-0.131
6,RRIRSRPPRLPRPRPRPVWQPRP,0.168
7,RRIRYRPPRLPRPRPRPFLFPRP,-0.704
8,RRIRYRPPRLPRPRPRPHFAPRP,-0.284
9,RRIRHRPPRLPRPRPRPNSRPRP,-0.0698
10,RRIRYRPPRLPRPRPRPTINPRP,-1.41
11,RRIRHRPPRLPRPRPRPYAFPRP,0.0613
12,RRIRCRPPRLPRPRPRPERAPRP,0.675
13,RRIRPRPPRLPRPRPRPFRWPRP,-0.0528
14,RRIRRRPPRLPRPRPRPSEVPRP,1.94
15,RRIRLRPPRLPRPRPRPYFSPRP,-0.39
16,RRIRHRPPRLPRPRPRPNSMPRP,-0.401
17,RRIRWRPPRLPRPRPRPKTNPRP,0.239
18,RRIRDRPPRLPRPRPRPRVRPRP,0.106
19,RRIRQRPPRLPRPRPRPFFDPRP,-0.0271
20,RRIRGRPPRLPRPRPRPSCQPRP,0.925
21,RRIRLRPPRLPRPRPRPPDEPRP,0.264
22,RRIRWRPPRLPRPRPRPPGKPRP,0.214
23,RRIRHRPPRLPRPRPRPMLDPRP,0.0917
24,RRIRARPPRLPRPRPRPPKVPRP,0.123
25,RRIRIRPPRLPRPRPRPKVTPRP,-0.386

row,Sequence,shrunken log2 fold change
1,RRIRSRPPRLPRPRPRPDYHPRP,-0.271
2,RRIRSRPPRLPRPRPRPRKPPRP,0.0197
3,RRIRNRPPRLPRPRPRPRVAPRP,0.111
4,RRIRARPPRLPRPRPRPYANPRP,-0.165
5,RRIRPRPPRLPRPRPRPYSLPRP,-0.139
6,RRIRNRPPRLPRPRPRPSDWPRP,0.0113
7,RRIRPRPPRLPRPRPRPIIMPRP,0.195
8,RRIRERPPRLPRPRPRPGSMPRP,-0.343
9,RRIRGRPPRLPRPRPRPHGKPRP,0.513
10,RRIRCRPPRLPRPRPRPLMCPRP,-0.306
11,RRIRFRPPRLPRPRPRPDDKPRP,-0.059
12,RRIRIRPPRLPRPRPRPDTEPRP,-0.853
13,RRIRGRPPRLPRPRPRPPKCPRP,1.63
14,RRIRDRPPRLPRPRPRPRLHPRP,0.11
15,RRIRQRPPRLPRPRPRPALKPRP,0.0439
16,RRIRCRPPRLPRPRPRPNCEPRP,0.223
17,RRIRRRPPRLPRPRPRPKIRPRP,0.0898
18,RRIRNRPPRLPRPRPRPHCDPRP,-0.292
19,RRIRLRPPRLPRPRPRPYPSPRP,0.085
20,RRIRKRPPRLPRPRPRPRYHPRP,-0.17
21,RRIRWRPPRLPRPRPRPDIMPRP,0.0439
22,RRIRPRPPRLPRPRPRPLASPRP,0.104
23,RRIRKRPPRLPRPRPRPKWKPRP,0.479
24,RRIRTRPPRLPRPRPRPGCFPRP,0.0805
25,RRIRNRPPRLPRPRPRPDPFPRP,-0.582
